# Patent US20240166755A1, “CHIMERIC ANTIGEN RECEPTORS TARGETING CANCER” (University of Southern California, priority 2016, published 2024)
# B1: CD8SP-12E10-(vL-vH)-Myc-CD28z-T2A-PAC(031615-S03): CAR construct targeting MPL, 12E10 scFv, CD28 costimulatory domain (protein)
# chain: MALPVTALLLPLALLLHAARPDQVQLQQSGPGLVKPSETLSLTCTVSGDSISSYYWSWIRQPPGKGLEWIGYIYYSGSTNYNPSLKSRVTISVDTSKSQFSLKLSSVTAADTAVYYCARGRYFDVWGRGTMVTSSGGGGSGGGGSGGGGSSSYVLTQPPSVSGSPGQSITISCTGTSSDVGGYNYVSWYQQHPGKAPKLMIYEGSKRPSGVSNRFSGSKSGNTASLTISGLQAEDEADYYCSSYTTRSTRVFGGGTKLTVLGAAATREQKLISEEDLKIEVMYPPPYLDNEKSNGTIIHVKGKHLCPSPLFPGPSKPFWVLVVVGGVLACYSLLVTVAFIIFWVRSKRSRLLHSDYMNMTPRRPGPTRKHYQPYAPPRDFAAYRSRVKFSRSADAPAYQQGQNQLYNELNLGRREEYDVLDKRRGRDPEMGGKPRRKNPQEGLYNELQKDKMAEAYSEIGMKGERRRGKGHDGLYQGLSTATKDTYDALHMQALPPRSSGSGEGRGSLLTCGDVEENPGPHMTEYKPTVRLATRDDVPRAVRTLAAAFADYPATRHTVDPDRHIERVTELQELFLTRVGLDIGKVWVADDGAAVAVWTTPESVEAGAVFAEIGPRMAELSGSRLAAQQQMEGLLAPHRPKEPAWFLATVGVSPDHQGKGLGSAVVLPGVEAAERAGVPAFLETSAPRNLPFYERLGFTVTADVEVPEGPRTWCMTRKPGA
# modifications: listed as DNA
# B2: CD8SP-AB317-(vL-vH)-Myc-CD28z-T2A-PAC(031615-T04): CAR construct targeting MPL, AB317 scFv, CD28 costimulatory domain (protein)
# chain: MALPVTALLLPLALLLHAARPDIVLTQSPASLAVSLGQSVTISCRASESVEYYGTSLMQWYQQKPGQPPKLLIYGASNVESGVPARFSGSGSGTDFSLNIHPVEEDDIAMYFCQQSRKVPWTFGGGTKLEIKGGGGSGGGGSGGGGSEVKLVESGGGLVKPGGSRKLSCAASGFTFSSYTMSWVRQTPAKRLEWVATISSGSSTIYYADTVKGRFTISRDNAKNTLFLQMTSLRSEDTAMYYCARRWFLDCWGQGTTLTVSSTREQKLISEEDLKIEVMYPPPYLDNEKSNGTIIHVKGKHLCPSPLFPGPSKPFWVLVVVGGVLACYSLLVTVAFIIFWVRSKRSRLLHSDYMNMTPRRPGPTRKHYQPYAPPRDFAAYRSRVKFSRSADAPAYQQGQNQLYNELNLGRREEYDVLDKRRGRDPEMGGKPRRKNPQEGLYNELQKDKMAEAYSEIGMKGERRRGKGHDGLYQGLSTATKDTYDALHMQALPPRSSGSGEGRGSLLTCGDVEENPGPHMTEYKPTVRLATRDDVPRAVRTLAAAFADYPATRHTVDPDRHIERVTELQELFLTRVGLDIGKVWVADDGAAVAVWTTPESVEAGAVFAEIGPRMAELSGSRLAAQQQMEGLLAPHRPKEPAWFLATVGVSPDHQGKGLGSAVVLPGVEAAERAGVPAFLETSAPRNLPFYERLGFTVTADVEVPEGPRTWCMTRKPGA
# modifications: listed as DNA
# B3: CD8SP-178-(vL-vH)-Myc-CD28z-T2A-PAC(031615-R04): CAR construct targeting MPL, 178 scFv, CD28 costimulatory domain (protein)
# chain: MALPVTALLLPLALLLHAARPDIVMTQAAPSIPVTPGESVSISCRSDKSLLHSNGNTYLFWFLQRPGQSPQLLIYRMSNLASGVPDRFSGSGSGTAFTLRISGVEAEDVGVYYCMQHLEYPYTFGGGTKLEIKGGGGSGGGGSGGGGSQVQLQQSGPELVKPGASVKMSCKASGYAFSSSWLNWVRQRPGKGLEWIGRIYPGDGENHYNGKFKGKATLTADKSSSTGYMQLSSLTSEDSAVYFCASYYEGGYWGQGTLITVSATREQKLISEEDLKIEVMYPPPYLDNEKSNGTIIHVKGKHLCPSPLFPGPSKPFWVLVVVGGVLACYSLLVTVAFIIFWVRSKRSRLLHSDYMNMTPRRPGPTRKHYQPYAPPRDFAAYRSRVKFSRSADAPAYQQGQNQLYNELNLGRREEYDVLDKRRGRDPEMGGKPRRKNPQEGLYNELQKDKMAEAYSEIGMKGERRRGKGHDGLYQGLSTATKDTYDALHMQALPPRSSGSGEGRGSLLTCGDVEENPGPHMTEYKPTVRLATRDDVPRAVRTLAAAFADYPATRHTVDPDRHIERVTELQELFLTRVGLDIGKVWVADDGAAVAVWTTPESVEAGAVFAEIGPRMAELSGSRLAAQQQMEGLLAPHRPKEPAWFLATVGVSPDHQGKGLGSAVVLPGVEAAERAGVPAFLETSAPRNLPFYERLGFTVTADVEVPEGPRTWCMTRKPGA
# modifications: listed as DNA
# B4: CD8SP-MPL-VB22Bw4-(vL-vH)-Myc-CD28z-T2A-PAC(031615-B06): CAR construct targeting MPL, VB22Bw4 scFv, CD28 costimulatory domain (protein)
# chain: MALPVTALLLPLALLLHAARPDDIVMTQSPLSLPVTPGEPASISCRSSKSLLHSNGNTYLYWFLQKPGQSPQLLIYRMSNLASGVPDRFSGSGSGTDFTLKISRVEAEDVGVYYFMQHIEYPFTFGQGTKLEIKGGGGSGGGGSGGGGSQVQLVQSGPEVKKPGASVKVSCKASGYTFTNSWMNWVRQRPGKGLEWIGRIYPGDGETIYNGKFRVRVTITADESTSTAYMQLSSLRSEDTAVYYCARGYDDYSFAYWGQGTTVTVSSTREQKLISEEDLKIEVMYPPPYLDNEKSNGTIIHVKGKHLCPSPLFPGPSKPFWVLVVVGGVLACYSLLVTVAFIIFWVRSKRSRLLHSDYMNMTPRRPGPTRKHYQPYAPPRDFAAYRSRVKFSRSADAPAYQQGQNQLYNELNLGRREEYDVLDKRRGRDPEMGGKPRRKNPQEGLYNELQKDKMAEAYSEIGMKGERRRGKGHDGLYQGLSTATKDTYDALHMQALPPRSSGSGEGRGSLLTCGDVEENPGPHMTEYKPTVRLATRDDVPRAVRTLAAAFADYPATRHTVDPDRHIERVTELQELFLTRVGLDIGKVWVADDGAAVAVWTTPESVEAGAVFAEIGPRMAELSGSRLAAQQQMEGLLAPHRPKEPAWFLATVGVSPDHQGKGLGSAVVLPGVEAAERAGVPAFLETSAPRNLPFYERLGFTVTADVEVPEGPRTWCMTRKPGA
# modifications: listed as DNA
# B5: CD8SP-161-(vL-vH)-Myc-CD28z-T2A-PAC(021715-Z07): CAR targeting MPL: 161 scFv with CD28 hinge, transmembrane and cytosolic domains and CD3z (protein)
# chain: MALPVTALLLPLALLLHAARPDDIQMTQSSSSFSVSLGDRVTITCMASEDIYIRLAWYQQKPGNAPRLLISAATSLETGVPSRFSGSGSGKDYTLSITSLQTEDVGTYYCQQYWSSPWTFGGGTKLEINGGGGSGGGGSGGGGSDVQLQESGPGLVKPSQSLSLTCTVTGYSITSDYTWNWIRQFPGNKLEWMGYITYSGSTSYNPSLKSRNSITRDTSKNQFFLQLNSVTTEDTATYYCARLGRRYTMDYWGQGTSVTVSSTREQKLISEEDLKIEVMYPPPYLDNEKSNGTIIHVKGKHLCPSPLFPGPSKPFWVLVVVGGVLACYSLLVTVAFIIFWVRSKRSRLLHSDYMNMTPRRPGPTRKHYQPYAPPRDFAAYRSRVKFSRSADAPAYQQGQNQLYNELNLGRREEYDVLDKRRGRDPEMGGKPRRKNPQEGLYNELQKDKMAEAYSEIGMKGERRRGKGHDGLYQGLSTATKDTYDALHMQALPPRSSGSGEGRGSLLTCGDVEENPGPHMTEYKPTVRLATRDDVPRAVRTLAAAFADYPATRHTVDPDRHIERVTELQELFLTRVGLDIGKVWVADDGAAVAVWTTPESVEAGAVFAEIGPRMAELSGSRLAAQQQMEGLLAPHRPKEPAWFLATVGVSPDHQGKGLGSAVVLPGVEAAERAGVPAFLETSAPRNLPFYERLGFTVTADVEVPEGPRTWCMTRKPGA
# modifications: listed as DNA
# notes: CAR targeting MPL: 161 scFv with CD28 hinge, transmembrane and cytosolic domains and CD3z
# B6: CD8SP-MPL-161-(vL-vH)-Myc-BBz-T2A-PAC(021015-R07): CAR targeting MPL: 161 scFv, Myc tag, CD8 hinge/TM, 41BB, CD3z, T2A, puromycin resistance (protein)
# chain: MALPVTALLLPLALLLHAARPDDIQMTQSSSSFSVSLGDRVTITCMASEDIYIRLAWYQQKPGNAPRLLISAATSLETGVPSRFSGSGSGKDYTLSITSLQTEDVGTYYCQQYWSSPWTFGGGTKLEINGGGGSGGGGSGGGGSDVQLQESGPGLVKPSQSLSLTCTVTGYSITSDYTWNWIRQFPGNKLEWMGYITYSGSTSYNPSLKSRNSITRDTSKNQFFLQLNSVTTEDTATYYCARLGRRYTMDYWGQGTSVTVSSTREQKLISEEDLAKPTTTPAPRPPTPAPTIASQPLSLRPEACRPAAGGAVHTRGLDFACDIYIWAPLAGTCGVLLLSLVITLYCKRGRKKLLYIFKQPFMRPVQTTQEEDGCSCRFPEEEEGGCELRVKFSRSADAPAYQQGQNQLYNELNLGRREEYDVLDKRRGRDPEMGGKPRRKNPQEGLYNELQKDKMAEAYSEIGMKGERRRGKGHDGLYQGLSTATKDTYDALHMQALPPRSSGSGEGRGSLLTCGDVEENPGPHMTEYKPTVRLATRDDVPRAVRTLAAAFADYPATRHTVDPDRHIERVTELQELFLTRVGLDIGKVWVADDGAAVAVWTTPESVEAGAVFAEIGPRMAELSGSRLAAQQQMEGLLAPHRPKEPAWFLATVGVSPDHQGKGLGSAVVLPGVEAAERAGVPAFLETSAPRNLPFYERLGFTVTADVEVPEGPRTWCMTRKPGA
# modifications: listed as DNA
# notes: CAR targeting MPL: 161 scFv, Myc tag, CD8 hinge/TM, 41BB, CD3z, T2A, puromycin resistance
# How the values were obtained:
# [1] = test system: Jurkat cells stably expressing MPL and GLuc; assay: GLuc cell death assay, Jurkat-MPL-GLuc target cells; details: T cells, puromycin selected, E:T 10:1, 4 hours
# [2] = test system: HEL cells stably expressing GLuc; assay: GLuc cell death assay, HEL-GLuc target cells; details: for GLuc activity (lysis of target cells): T cells, puromycin selected, E:T 10:1, 4 hours
# Description: The blood samples to isolate Peripheral blood mononuclear cells (PBMCs) were obtained from healthy de-identified adult donors. PBMC were isolated from buffy coats by Ficoll-Hypaque gradient centrifugation and re-suspended in XVIVO medium (Lonza) supplanted with 10 ng/ml soluble anti-CD3, 10 ng/ml soluble anti-CD28 and 100 IU recombinant human-IL2. […] The PBMC expressing the indicated CARs and uninfected PBMC were co-cultured with HEL-GLuc target cells for 4 h and lysis of target cells measured by the single-step homogenous GLuc assay by injecting 0.5× CTZ assay buffer as described above.
# Cells were selected with puromycin and expanded.
# Cells were subsequently co-cultured overnight with HEL.92.1.7 cells that had been engineered to express GLuc.
# [3] = test system: MPL-expressing HEL.92.1.7 (HEL) cells; assay: Jurkat-NFAT-EGFP reporter assay, co-culture with HEL cells (Table 25); type: cell-based, human; details: FACS
# Description: (§1) Cells were subsequently co-cultured with MPL-expressing HEL.92.1.7 (HEL) cells. […] CAR construct with HEL cells. The experiment was repeated by co-culturing the Jurkat-NFAT-EGFP cells with either RAJI cells, which have weak MPL expression, or with RAJI-MPL cells that were engineered to ectopically express human MPL receptor.
# RAJI-MPL cells = assay: Jurkat-NFAT-EGFP reporter assay, co-culture with RAJI-MPL or RAJI-vector cells (Table 25); type: cell-based, human; details: RAJI-MPL cells compared with RAJI-vector cells
# Description: as §1
Molecule,GLuc activity (lysis of target cells) [1],GLuc activity (lysis of target cells) [2],EGFP expression (NFAT-EGFP reporter) [3],EGFP expression (NFAT-EGFP reporter) (RAJI-MPL cells),"killing of HEL-GLuc cells ([2]; CAR-expressing PBMC, 4 h, versus uninfected PBMC)"
B1,stronger,–,–,–,–
B2,stronger,stronger,–,–,–
B3,modest,modest,–,–,–
B4,modest,–,–,–,–
B5,stronger,stronger,strongest,strongest,–
B6,–,–,strongest,strongest,increased killing
